Laboratory results taken from patent publication US20120244132A1 (published 2012).

Target: T1, latent membrane protein 2 (LMP-2) from the Epstein Barr Virus (EBV) peptide on HLA-A*02:01 (human)
T1 peptide: CLGGLLTMV
Assay: multimer staining

B1: EBVa14-p2A-Vb7.7 (LMP-2-specific TCR of SEQ ID No. 8) (TCR, V domains shown)
Valpha: AQKITQTQPGMFVQEKEAVTLDCTYDTSDQSYGLFWYKQPSSGEMIFLIYQGSYDEQNATEGRYSLNFQKARKSANLVISASQLGDSAMYFCAMREGSGSARQLTFGSGTQLTVLP
Vbeta: GAGVSQSPRYKVTKRGQDVTLRCDPISSHATLYWYQQALGQGPEFLTYFNYEAQPDKSGLPSDRFSAERPEGSISTLTIQRTEQRDSAMYRCASSLGPAGIQETQYFGPGTRLLVL
binding result: recognises
